Results as given in publication PMC3351156 (Nucleic Acids Research, 2012).
Read-outs that look alike come from different tables or passages of the source. Non-standard residues stand in square brackets, D forms with d. No end group written: not given here. pT = C[C@@H](OP(=O)(O)O)[C@H](N)C(=O)O

B2: MDC1^2–133 (unphosphorylated) (domain or fragment, UniProt Q14676 2-133, looked up)
chain: EDTQAIDWDVEEEEETEQSSESLRCNVEPVGRLHIFSGAHGPEKDFPLHLGKNVVGRMPDCSVALPFPSISKQHAEIEILAWDKAPILRDCGSLNGTQILRPPKVLSPGVSHRLRDQELILFADLLCQYHRL
B6: MDC1^27–138 (MDC1 FHA domain, residues 27–138) (domain or fragment, UniProt Q14676 27-138, looked up)
chain: NVEPVGRLHIFSGAHGPEKDFPLHLGKNVVGRMPDCSVALPFPSISKQHAEIEILAWDKAPILRDCGSLNGTQILRPPKVLSPGVSHRLRDQELILFADLLCQYHRLDVSLP

What was measured:
[1] = target: Mutator 2 FHA domain (Drosophila melanogaster) (Drosophila melanogaster)
AUC [2] = target: the molecule itself; assay: AUC
AUC [3] = target: the molecule itself; assay: AUC; remark: listed apart in the source
SMT3-MDC1^2–133-T98A = target: T1, SMT3-MDC1^2–133-T98A (UniProt Q14676 2-133, T98A); assay: ITC
T1 sequence (looked up): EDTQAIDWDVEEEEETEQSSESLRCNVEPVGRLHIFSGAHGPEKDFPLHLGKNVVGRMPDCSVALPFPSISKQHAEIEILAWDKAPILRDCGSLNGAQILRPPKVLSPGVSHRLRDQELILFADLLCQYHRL

[4] = target: B6; assay: ITC
[5] = target: B2; assay: AUC
SEC [6] = target: the molecule itself; assay: SEC
SEC [7] = target: the molecule itself; assay: SEC; remark: listed apart in the source
SEC [8] = target: the molecule itself; assay: SEC; remark: listed apart in the source

Mutator 2 FHA domain (Drosophila melanogaster) (domain or fragment)
stoichiometry N [1]: 2

B1: pT4-MDC1^2–133 (T4-phosphorylated MDC1^2–133) (domain or fragment, UniProt Q14676 2-133, looked up)
chain: EDTQAIDWDVEEEEETEQSSESLRCNVEPVGRLHIFSGAHGPEKDFPLHLGKNVVGRMPDCSVALPFPSISKQHAEIEILAWDKAPILRDCGSLNGTQILRPPKVLSPGVSHRLRDQELILFADLLCQYHRL
modifications: phosphothreonine at 4
Kd (AUC [2]): 0.035 µM

B2
Kd (AUC [3]): 16 µM | Kd (AUC [2]): 9.2 µM

B3: phosphopeptide MED(pT)QAID (pT4-8P) (peptide)
peptide: MED[pT]QAID
fold reduction of binding affinity against SMT3-MDC1^2–133 (SMT3-MDC1^2–133-T98A): 7 fold | Kd [4]: 40 ± 3 µM | Kd [5]: 20 µM

B4: pT4-MDC1^2–133-R58A (domain or fragment, UniProt Q14676 2-133, looked up)
chain: EDTQAIDWDVEEEEETEQSSESLRCNVEPVGRLHIFSGAHGPEKDFPLHLGKNVVGAMPDCSVALPFPSISKQHAEIEILAWDKAPILRDCGSLNGTQILRPPKVLSPGVSHRLRDQELILFADLLCQYHRL
modifications: phosphothreonine at 4
binding result (SEC [6]): binds

B5: FHA domain of Xenopus tropicalis MDC1 (domain or fragment)
chain: NIIGRHTNCDVTLPAQSVSKKHAIIEVEADCHTLCDQGSLNKTRRGKAAI
stoichiometry N (SEC [7]): 2

B6
stoichiometry N (SEC [8]): 2
